The values that follow come from patent US6303317A, “Peptide probes and methods for making the same” (The Regents of the University of California, priority 1998, dated 2001).

Where no end group is shown, it is not given here.

For one series, the system named is APC protein. In words: Precipitation of APC from human colon cancer cell line lysates with biotinylated probe and streptavidin particles. The note with it: Western blot with APC antibody. It counts as binding. The method, then:
Precipitation experiments were carried out in order to determine whether the anti-APCp1 polypeptide probe was capable of detecting the low in vivo levels of APC which are typically present in normal and tumor cells. FIG. 7 is a schematic representation of the strategy used. Briefly, cell lines which produce a normal (i.e., full length human APC) and mutant (i.e., truncated human APC) were lysed, and the lysate combined with either biotinylated […] or biotinylated anti-APC monoclonal antibody. Molecules bound to the biotinylated probes were collected by binding to streptavidin, and the bound molecules released from the beads followed by SDS-PAGE, blotting of the gels, and detection with a biotinylated APC antibody. […] was detected on X-ray film. These steps are elaborated in more detail as follows.
Cells were harvested at 90-100% confluency. Cells were washed twice with ice-cold Dulbecco's phosphate buffered saline (Gibco BRL) containing magnesium chloride and calcium chloride, scraped into 15 mL ice cold D-PBS and pelleted in a Beckman J-6 centrifuge for 5 minutes at 4° C. The cell pellet was resuspended in 1 mL ice-cold phosphate buffer, pH 8, containing 0.2% NP-40, 400 μg/mL of Pefabloc SC (Boehringer Mannheim) and 10 μg/mL each of leupeptin, pepstatin, and aprotinin. […]

The target of series [1] is T1, APC-55, a peptide corresponding to amino acids 2-55 of human APC (human).
T1 peptide: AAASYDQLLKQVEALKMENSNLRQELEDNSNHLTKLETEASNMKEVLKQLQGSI
In words: thermal denaturation followed by circular dichroism at 222 nm. The method, then: (§1) CD spectra (180–300 nm) for the APC-55 and anti-APCp1 peptides alone and in combination were recorded in a 1 mm quartz cuvette at 5° C. using an Aviv 62DS circular dichroism spectrophotometer. The concentrations of peptide stocks were determined optically by the method of Gill and vonHippel, *Anal. Biochem* 182:319–326 (1989). Peptide stocks were diluted in 10 mM KPO_4, 100 mM KF, pH 7.0. Thermal denaturations were carried out in steps of 1–3° C. with 2 minutes for equilibration and one minute for data averaging. Thermal transitions were >95% reversible. The results in FIGS. 3 and 4 obtained with the APC-55 alone are shown by open circles (○), with the anti-APCp1 alone by squares (□), and with an equimolar mixture of APC-55 and anti-APCp1 with closed circles (●).
Background: Circular dichroism is the unequal absorption of left and right circularly polarised light.

Series [2] has as its target T1, APC-55, a peptide corresponding to …. In words: thermal stability at 20 µM peptide in PBS (pH 7.0), mixture.
Series [3] is described as follows: thermal stability at 20 µM peptide in PBS (pH 7.0), peptide alone.
For series [4], the target named is T1, APC-55, a peptide corresponding to …. In words: thermal denaturation by CD at 222 nm, equimolar mixture, 8.0 µM. The method, then: as §1
Series [5] shares this target. Description: thermal denaturation by CD at 222 nm, equimolar mixture, 20.0 µM. The method, then:
as §1

For series [6] the target is unchanged. Description: thermal denaturation by CD at 222 nm, equimolar mixture, 75.0 µM. The method, then: as §1
For series [7] the target is unchanged. Description: native acrylamide gel electrophoresis, judged by the sensitivity of detection. The method, then: Native acrylamide gel electrophoresis was used as a direct test of heterodimer specificity. Samples of the individual peptides and an equimolar mixture of the peptides were prepared at 0.6 mM and diluted two-fold in 0.2% (w/v) methyl green, 20% glycerol, 750 mM beta-alanine acetate pH 6.0. Gels contained a separating gel of 7.5% acrylamide in 375 mM beta-alanine acetate, pH 4.0. Samples were run for 2.5 hours at 100 volts, and the gels were fixed with 2% glutaraldehyde and stained for at least 1 hour in 0.2% Coomassie Brilliant Blue in 50% methanol, 10% acetic acid (v/v). Destaining was carried out overnight in the same solvent lacking the dye.
The data presented herein was surprising in view of the prior art reports of the sufficiency of e':g interactions for dimerization specificity of coiled coil proteins [O'Shea et al. (1992), supra; O'Shea et al. (1993) supra; Krylov et al (1994) EMBO J. 13:2849–2861].

Series [8] can be described thus: thermal denaturation by CD at 222 nm, peptide alone (homo-oligomer), 8.0 µM.
The nature of series [9]: thermal denaturation by CD at 222 nm, peptide alone (homo-oligomer), 20.0 µM.
The nature of series [10]: thermal denaturation by CD at 222 nm, peptide alone (homo-oligomer), 75.0 µM.

For “biotinylated-anti-APCp1: N-terminally biotinylated anti-APCp1 with Met, an additional Leu8Val mutation and Glu-Asp-Glu at the C-terminus (MAAKGDQVKKEVEALEYENSNLRKKLEDHKKKLTKLKTEISNAKKMLKQLYASIEDE; not fully specified (N-terminus); also: biotin attached via a long spacer arm)”, the “binding to / precipitation of wild-type and mutant APC at endogenous cell concentrations” value with APC protein is “precipitated truncation mutants and full-length APC at endogenous cell concentrations”.

B1: anti-APCp1 polypeptide probe (designed binder)
peptide: MAAKGDQLKKEVEALEYENSNLRKKLEDHKKKLTKLKTEISNAKKMLKQLYASI
As to B1, the “increase in the thermal melting transition” value in series [1] is > 10 ° C. Besides, the Tm was found to be 54.3 ° C in series [2] and 52.3 ° C in series [3]. The “Apparent Tm” value was determined as 50.6 ° C in [4]; 54.3 ° C in series [5]; 64.7 ° C in series [6]; 45 ° C in series [8]; 52.3 ° C in series [9]; 59.6 ° C in series [10]. The “preference for heterodimer over homodimers (fold)” value in [7] was ≥ 100 fold.
